Measured values from article PMC10402027 (bioRxiv, 2023).

Target: T1, progesterone receptor, B isoform (PR-B) (UniProt P06401 1-933)
T1 sequence: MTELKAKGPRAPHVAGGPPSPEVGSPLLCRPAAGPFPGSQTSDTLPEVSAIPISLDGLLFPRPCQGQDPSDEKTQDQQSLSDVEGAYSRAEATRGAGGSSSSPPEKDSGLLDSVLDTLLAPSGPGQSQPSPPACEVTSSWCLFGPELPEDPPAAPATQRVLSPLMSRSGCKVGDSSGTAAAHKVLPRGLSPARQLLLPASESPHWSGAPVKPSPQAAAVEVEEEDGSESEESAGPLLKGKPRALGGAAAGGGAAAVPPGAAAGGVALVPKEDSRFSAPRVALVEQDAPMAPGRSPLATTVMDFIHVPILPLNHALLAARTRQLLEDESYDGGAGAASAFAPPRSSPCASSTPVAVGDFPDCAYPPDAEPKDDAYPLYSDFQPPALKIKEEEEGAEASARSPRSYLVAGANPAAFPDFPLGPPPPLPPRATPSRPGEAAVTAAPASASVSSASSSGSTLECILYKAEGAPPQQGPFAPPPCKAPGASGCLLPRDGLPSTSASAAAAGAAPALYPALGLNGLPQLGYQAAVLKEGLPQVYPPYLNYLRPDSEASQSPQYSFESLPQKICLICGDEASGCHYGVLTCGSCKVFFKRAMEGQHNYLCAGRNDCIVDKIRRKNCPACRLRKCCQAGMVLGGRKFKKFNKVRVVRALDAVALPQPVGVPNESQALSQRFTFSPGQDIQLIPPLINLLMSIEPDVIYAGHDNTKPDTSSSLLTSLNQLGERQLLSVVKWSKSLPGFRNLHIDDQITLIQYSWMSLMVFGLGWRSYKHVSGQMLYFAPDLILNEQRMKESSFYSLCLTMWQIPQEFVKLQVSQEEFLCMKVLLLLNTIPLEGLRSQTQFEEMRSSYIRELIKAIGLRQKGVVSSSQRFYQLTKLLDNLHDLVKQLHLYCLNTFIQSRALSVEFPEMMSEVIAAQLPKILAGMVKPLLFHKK
Experiment: FRET or BRET

fold of the progesterone-induced increase in NanoBRET proximity against ERα WT: ~2 fold
B1: estrogen receptor alpha Y537S (ERα Y537S) (receptor)
chain: MTMTLHTKASGMALLHQIQGNELEPLNRPQLKIPLERPLGEVYLDSSKPAVYNYPEGAAYEFNAAAAANAQVYGQTGLPYGPGSEAAAFGSNGLGGFPPLNSVSPSPLMLLHPPPQLSPFLQPHGQQVPYYLENEPSGYTVREAGPPAFYRPNSDNRRQGGRERLASTNDKGSMAMESAKETRYCAVCNDYASGYHYGVWSCEGCKAFFKRSIQGHNDYMCPATNQCTIDKNRRKSCQACRLRKCYEVGMMKGGIRKDRRGGRMLKHKRQRDDGEGRGEVGSAGDMRAANLWPSPLMIKRSKKNSLALSLTADQMVSALLDAEPPILYSEYDPTRPFSEASMMGLLTNLADRELVHMINWAKRVPGFVDLTLHDQVHLLECAWLEILMIGLVWRSMEHPGKLLFAPNLLLDRNQGKCVEGMVEIFDMLLATSSRFRMMNLQGEEFVCLKSIILLNSGVYTFLSSTLKSLEEKDHIHRVLDKITDTLIHLMAKAGLTLQQQHQRLAQLLLILSHIRHMSNKGMEHLYSMKCKNVVPLSDLLLEMLDAHRLHAPTSRGGASVEETDQSHLATAGSTSSHSLQKYYITGEAEGFPATV
